From paper PMC7035355

Biological target: FBW7 (UniProt Q969H0)
Assay: co-immunoprecipitation, immunoblot
Conditions: reference: wild type Mcl-1; sites S159

Substance: Mcl-1 (from UniProt Q07820) S159A
- binding against the reference: weaker
